What was measured:
[1] = molecular target: RSV strain A2 F protein, pre-fusion-stabilized DS-Cav1 (human respiratory syncytial virus subgroup A strain A2) (UniProt P03420); assay: ELISA on coated antigen
[2] = molecular target: RSV strain A2 F protein, pre-fusion-stabilized SC-TM (human respiratory syncytial virus strain A2) (UniProt P03420); assay: ELISA on coated antigen

## mAb D25 (antibody)
[1]
  EC50: 0.089 µg/mL

## motavizumab (antibody)
[2]
  EC50: 0.028 µg/mL
[1]
  EC50: 0.037 µg/mL

Source: patent US20190240316A1
